In patent US20050182242A1, “Global analysis of protein activities using proteome chips” (priority 2001, published 2005):

Experiments:
calmodulin = target: T1, calmodulin (Homo sapiens, UniProt P0DP23); assay: Yeast proteome chip probed with biotinylated calmodulin; type: binding; conditions: biotinylated calmodulin in the presence of calcium
T1 construct: purchased CalBiochem, USA
Text: To test for protein-protein interactions, the yeast proteome was probed with calmodulin (11). Calmodulin is a highly conserved calcium-binding protein involved in many calcium-regulated cellular processes and has many known physical partners (Hook et al., 2001, Annu. Rev. Pharmacol. Toxicol. 41:471). The calmodulin probe was biotinylated, and bound probe was detected using Cy3-labeled streptavidin. As a control, the yeast proteome was probed with Cy3-labeled streptavidin alone.
Generally, protein-protein interactions can be assayed as follows. Blocked proteome chips are washed three to five times in PBS buffer, and the extra liquid on the glass surface is removed by tapping the slides vertically on a KIMWIPE™. 200 ∞l of biotinylated protein probe is added to the proteome chip and immediately covered by a hydrophobic plastic cover slip (GRACE BIO-LABS™, USA). After trapped air bubbles are removed, the chip is incubated in a humidity chamber at room temperature (RT) for one hour. To remove the cover slip, the chip is immersed into large volume of PBS buffer (>50 ml), and the slip should float away. The chip is then moved to a second PBS bath (>50 ml) and washed 3×5 min with shaking at RT. […]

six different liposomes = assay: Reverse membrane assay: proteins spotted on nitrocellulose probed with six liposomes; type: binding; conditions: HRP-conjugated streptavidin
Experimental: B. A reverse assay was carried out to test for protein-lipid interactions. The proteins were prepared and spotted onto nitrocellulose filters in a dilution series and probed with the six different liposomes. As a control, the six liposomes were also added to the BSA-blocked membrane. After extensive washing, the bound liposomes were detected using an HRP-conjugated streptavidin and an ECL kit.
C. Linear correlation between the binding signals and the amounts of Rim15p in a membrane assay. When liposome-binding signals of Rim15p from the membrane assay (FIG. 4B) were plotted against the concentration gradient of the spotted Rim15p, the binding signals of PI(4)P, PI(3,4)P2, PI(3)P, and PI(4,5)P2 correlated linearly with the amounts of Rim15p.
Therefore, six proteins, i.e., Rim15p, Eno2p, Hxk1p, Sps1p, Yg1059wp, and Gcn2p, were further tested for phosphoinositol binding using two types of standard assays (Williamson, 2000, Nat. Struct Biol. 7(10):834-7). For Rim15p, Eno2p, and Hxk1p, PI(4,5)P2 liposomes were first adhered to a nitrocellulose membrane, which was then blocked by BSA; different amounts of the GST fusion proteins and a GST control were used to probe the membrane, and bound proteins were detected using anti-GST antibodies. […] We also carried out the reverse assay for four GST fusion proteins, Rim15p, Sps1p, Yg1059wp, and Gcn2p (Guerra et al., 2000, Biosci. Rep. 20: 41). Different amounts of these purified proteins were spotted onto nitrocellulose filters and probed with the six different liposomes (FIG. 5B). The bound liposomes were detected using a horseradish peroxidase (“HRP”)-conjugated streptavidin.

PI(4)P liposomes = assay: Yeast proteome chip probed with PI(4)P liposomes; conditions: liposome binding signal on yeast proteome chip, Cy3-streptavidin detection
Text: (§1) To identify PI-binding proteins in yeast, liposomes were used as probes because the liposome provides the most relevant physiological condition to assay the interactors. Six types of liposomes were used. Each contains phosphatidylcholine (“PC”) with 1% (w/w) N-(biotinoyl)-1,2-dihexadecanoyl-sn-glycero-3-phosphoethanolamine, triethylammonium salt (biotin DHPE). The biotinylated lipid serves as a label that can be detected by Cy3-streptavidin (21). In addition to PC, the five other liposomes contain either 5% (w/w) PI(3)P, PI(4)P, PI(3,4)P2, PI(4,5)P2, or PI(3,4,5)P3 (FIG. 3A).
(§2) The protein-liposome interaction was assayed as follows. Appropriate amounts of each lipid in chloroform were mixed and dried under nitrogen. The lipid mixture was resuspended in TBS buffer by vortexing. The liposomes were created by sonication. Blocked proteome chips were washed three to five times in PBS buffer, and the extra liquid on the glass surface was removed by tapping the slides vertically on a KIMWIPE™. 200 μl of liposome solution was added to the proteome chip and immediately covered by a hydrophobic plastic cover slip (GRACE BIO-LAB™, USA). After trapped air bubbles were removed, the chip was incubated in a humidity chamber at RT for one hour. To remove the cover slip, the chip was immersed into large volume of PBS buffer (50 ml), so that the slip would float away. The chip was then moved to a second PBS bath (>50 ml) and washed 3×5 min with shaking at RT. After removing extra liquid on the surface of the chip, about 100 μl of Cy3 or Cy5 conjugated streptavidin (PIERCE™, USA; 1:2000 to 1:4000 dilution) was added to the surface and covered by a hydrophobic plastic cover slip (GRACE BIO-LABS™, USA). The chip was incubated for greater than 30 min in the dark at RT. The chip was then washed as described above. To completely remove the liquid on the chip, the chip was spun to dryness at 1500-2000 rpm for 5-10 min at RT.
(§3) • 1. S. Fields, Y. Kohara, D. J. Lockhart, Proc. Natl. Acad. Sci. 96, 8825 (1999); A. Goffeau et al., Science 274, 563 (1996). • 2 P. Ross-Macdonald et al., Nature 402, 413 (1999); J. L., DeRisi, V. R. Iyer, P. O. Brown, Science 278, 680 (1997); E. A. Winzeler et al., Science 285, 901 (1999). P. Uetz et al., Nature 403, 623 (2000); T. Ito et al., Proc. Natl. Acad. Sci. USA. 97, 1143 (2000) • 3 H. Zhu, M. Snyder, Curr. Opin. Chem. Biol. 5, 40 (2001). • 4 M. R. Martzen et al., Science 286, 1153 (1999). • 5 H. Zhu et al., Nat. Genet. 26, 283 (2000). • 6 G. MacBeath, S. L. Schreiber, Science 289, 1760 (2000). • 7 A. Caveman, J. Cell Sci. 113, 3543 (2000). • 8 P. Arenkov et al., Anal. Biochem 278, 123 (2000). • 9 D. A. Mitchell, T. K. Marshall, R. J. Deschenes, Yeast 9, 715 (1993). The expression vector pEGH was created by inserting an RGS-HisX6 epitope tag between the GST gene and the polycloning site of pEG(KG). The yeast ORFs were cloned using the strategy described previously (5), except every step was done in a 96-well format. Plasmid DNAs confirmed by DNA sequencing were reintroduced into both yeast (Y258) and E. coli (DH5a). […] 0.1 mM calcium was present in buffers in all subsequent steps. The chip was washed three times with PBS at RT. Cy3-conjugated streptavidin (Jackson IR, USA) (1:5000 dilution) was added to the chip and incubated for 30 min at RT. After extensive washing, the chip was spun dry and scanned using a microarray scanner; the data was subsequently acquired with the GENEPIX™ array densitometry software (Axon, USA). • 12 S. S. Hook, A. R. Means, Annu. Rev. […]

PI(3,4)P2 liposomes = assay: Yeast proteome chip probed with PI(3,4)P2 liposomes; conditions: liposome binding signal on yeast proteome chip, Cy3-streptavidin detection
Text: as §1, §2
(§4) • 1. S. Fields, Y. Kohara, D. J. Lockhart, Proc. Natl. Acad. Sci. 96, 8825 (1999); A. Goffeau et al., Science 274, 563 (1996). • 2 P. Ross-Macdonald et al., Nature 402, 413 (1999); J. L., DeRisi, V. R. Iyer, P. O. Brown, Science 278, 680 (1997); E. A. Winzeler et al., Science 285, 901 (1999). P. Uetz et al., Nature 403, 623 (2000); T. Ito et al., Proc. Natl. Acad. Sci. USA. 97, 1143 (2000) • 3 H. Zhu, M. Snyder, Curr. Opin. Chem. Biol. 5, 40 (2001). • 4 M. R. Martzen et al., Science 286, 1153 (1999). • 5 H. Zhu et al., Nat. Genet. 26, 283 (2000). • 6 G. MacBeath, S. L. Schreiber, Science 289, 1760 (2000). • 7 A. Caveman, J. Cell Sci. 113, 3543 (2000). • 8 P. Arenkov et al., Anal. Biochem 278, 123 (2000). • 9 D. A. Mitchell, T. K. Marshall, R. J. Deschenes, Yeast 9, 715 (1993). The expression vector pEGH was created by inserting an RGS-HisX6 epitope tag between the GST gene and the polycloning site of pEG(KG). The yeast ORFs were cloned using the strategy described previously (5), except every step was done in a 96-well format. Plasmid DNAs confirmed by DNA sequencing were reintroduced into both yeast (Y258) and E. coli (DH5a). […] 0.1 mM calcium was present in buffers in all subsequent steps. The chip was washed three times with PBS at RT. Cy3-conjugated streptavidin (Jackson IR, USA) (1:5000 dilution) was added to the chip and incubated for 30 min at RT. After extensive washing, the chip was spun dry and scanned using a microarray scanner; the data was subsequently acquired with the GENEPIX™ array densitometry software (Axon, USA). • 12 S. S. Hook, A. R. Means, Annu. Rev. Pharmacol. Toxicol.41, 471 (2001). • 13 M. S. Cyert, R. Kunisawa, D. Kaim, J. Thorner, Proc. Natl. Acad. Sci. USA 88, 7376 (1991). • 14 D. A. Stirling, K. A. Welch, M. J. Stark, EMBO J. 13, 4329 (1994). • 15 F. Bohl, Kruse, EMBO J. 19, 5514 (2000); E. Bertrand et al., Mol. Cell 2, 437 (1998). • 16 D. C. Winter, E. Y. Choe, R. Li, Proc. Nat. Acad Sci. USA 96, 7288 (1999). • 17 C.

PI(3)P liposomes = assay: Yeast proteome chip probed with PI(3)P liposomes; conditions: liposome binding signal on yeast proteome chip, Cy3-streptavidin detection
Text: as §1
The protein-liposome interaction was assayed as follows. Appropriate amounts of each lipid in chloroform were mixed and dried under nitrogen. The lipid mixture was resuspended in TBS buffer by vortexing. The liposomes were created by sonication. Blocked proteome chips were washed three to five times in PBS buffer, and the extra liquid on the glass surface was removed by tapping the slides vertically on a KIMWIPE™. 200 μl of liposome solution was added to the proteome chip and immediately covered by a hydrophobic plastic cover slip (GRACE BIO-LAB™, USA). After trapped air bubbles were removed, the chip was incubated in a humidity chamber at RT for one hour. To remove the cover slip, the chip was immersed into large volume of PBS buffer (50 ml), so that the slip would float away. […]

PI(3,4,5)P3 liposomes = assay: Yeast proteome chip probed with PI(3,4,5)P3 liposomes; conditions: liposome binding signal on yeast proteome chip, Cy3-streptavidin detection
Text: as §1, §2, §4

PI(4,5)P2 liposomes = assay: Yeast proteome chip probed with PI(4,5)P2 liposomes; conditions: liposome binding signal on yeast proteome chip, Cy3-streptavidin detection
Text: as §1, §2, §4

[1] = tested on: phosphatidylcholine (PC) liposomes; assay: Yeast proteome chip probed with PC liposomes; conditions: liposome binding signal on yeast proteome chip, Cy3-streptavidin detection
Text: as §1, §2, §3

Substance	calmodulin binding (calmodulin)	liposome binding in reverse membrane assay (six different liposomes)	PI(4)P (PI(4)P liposomes)	PI(3, 4)P2 (PI(3,4)P2 liposomes)	PI(3)P (PI(3)P liposomes)	PI(3, 4, 5)P3 (PI(3,4,5)P3 liposomes)	PI(4, 5)P2 (PI(4,5)P2 liposomes)	PC [1]
Arc35p: component of the Arp2/3 actin-organizing complex	identified							
GCN2: yeast GST-HisX6 fusion protein on proteome chip		bound strongest to PI(3)P and PI(4)P and PI(3,4)P2	1356.97	232.01	26.50	975.60	505.60	1087.04
PET9: yeast GST-HisX6 fusion protein on proteome chip				−5.81		17.66	26.13	14.97
RRP5: yeast GST-HisX6 fusion protein on proteome chip			60.31	22.60		21.26	73.38	58.11
SDS3: yeast GST-HisX6 fusion protein on proteome chip			11.76	3.45		9.67	4.35	
SSB1: yeast GST-HisX6 fusion protein on proteome chip			16.98	6.28		4.27	1.31	12.91
